Earlier results, collected in PMC5852440.

Molecular target: EphB4 (Homo sapiens) (UniProt P54760)
Sequence of UniProt P54760 (P54760 16-539): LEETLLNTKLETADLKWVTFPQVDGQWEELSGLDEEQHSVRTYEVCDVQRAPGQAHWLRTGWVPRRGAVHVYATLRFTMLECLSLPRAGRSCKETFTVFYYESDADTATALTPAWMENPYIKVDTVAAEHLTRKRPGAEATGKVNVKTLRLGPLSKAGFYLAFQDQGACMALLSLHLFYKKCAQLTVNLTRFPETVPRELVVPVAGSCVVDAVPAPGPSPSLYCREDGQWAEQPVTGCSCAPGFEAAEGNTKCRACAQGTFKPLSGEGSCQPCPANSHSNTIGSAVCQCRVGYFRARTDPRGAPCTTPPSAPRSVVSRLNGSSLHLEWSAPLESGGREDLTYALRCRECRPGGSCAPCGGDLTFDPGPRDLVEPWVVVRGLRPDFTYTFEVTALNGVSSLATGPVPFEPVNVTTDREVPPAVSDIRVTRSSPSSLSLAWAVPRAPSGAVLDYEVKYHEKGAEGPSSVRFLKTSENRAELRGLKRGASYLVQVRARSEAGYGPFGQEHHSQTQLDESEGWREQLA

For Epo (from UniProt P01588), the Kd is listed as 880 nM.
